Assay results as given in patent publication US20160106863A1 (IMMUNOGEN, published 2016).

Assays:
T47D cells (human) = T47D cells (human) (UniProt P15328); assay: flow cytometry binding on T47D cells
EGFR = EGFR (UniProt P00533 25-1210, limits assumed); assay: cell-based or functional assay

T47D cells (human), sequence (P15328 25-234, stated change not applied): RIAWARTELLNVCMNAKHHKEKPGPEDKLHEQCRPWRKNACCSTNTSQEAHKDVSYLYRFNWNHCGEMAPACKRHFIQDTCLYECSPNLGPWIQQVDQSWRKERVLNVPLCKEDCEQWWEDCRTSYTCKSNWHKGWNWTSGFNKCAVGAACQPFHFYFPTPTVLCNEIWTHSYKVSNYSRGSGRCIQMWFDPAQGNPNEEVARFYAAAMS

Molecule: huMOV19 antibody
- EC50 (T47D cells (human)): 0.203 nM

B1: huML66-sulfo-SPDB-1d conjugate (antibody, human IgG1, kappa, V domains shown)
VH: QVQLQESGPGLVKPSETLSLTCTVSGLSLASNSVSWIRQPPGKGLEWMGVIWNHGGTDYNPSIKSRLSISRDTSKSQVFLKMNSLTAADTAMYFCVRKGGIYFDYWGQGVLVTVSS
VL: DTVLTQSPSLAVSPGERATISCRASESVSTLMHWYQQKPGQQPKLLIYLASHRESGVPARFSGSGSGTDFTLTIDPMEAEDTATYYCQQSRNDPWTFGQGTKLELKR
modifications: compound 1d linked via sulfo-SPDB linker, average of 3.0 molecules per antibody; attachment residues not stated
- EC50 in pM, in vitro cytotoxicity (WST-8), Detroit562 cells (EGFR): 110 pM
- EC50 in pM, in vitro cytotoxicity (WST-8), Detroit562 cells, + block (excess unconjugated antibody) (EGFR): 960 pM
- EC50 in pM, in vitro cytotoxicity (WST-8), NCI-H292 cells (EGFR): 20 pM
- EC50 in pM, in vitro cytotoxicity (WST-8), NCI-H292 cells, + block (excess unconjugated antibody) (EGFR): 690 pM
- EC50 in pM, in vitro cytotoxicity (WST-8), NCI-H1703 cells (EGFR): 70 pM
- EC50 in pM, in vitro cytotoxicity (WST-8), NCI-H1703 cells, + block (excess unconjugated antibody) (EGFR): 1310 pM
